Test [1] has as its target T1, TTD of UHRF1 (residues 134–285) (human, UniProt Q96T88 134-285).
T1 chain: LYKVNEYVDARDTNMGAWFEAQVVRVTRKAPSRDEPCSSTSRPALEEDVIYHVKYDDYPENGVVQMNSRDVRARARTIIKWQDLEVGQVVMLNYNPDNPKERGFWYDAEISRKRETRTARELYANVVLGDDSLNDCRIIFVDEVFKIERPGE
Briefly: ITC; in presence of Spacer R649A (1:2). (In general: ITC needs no label: the signal is the heat of the interaction.)

Test [2] addresses T2, TTD–PHD of UHRF1 (residues 134–366) (human, UniProt Q96T88 134-366).
T2 chain: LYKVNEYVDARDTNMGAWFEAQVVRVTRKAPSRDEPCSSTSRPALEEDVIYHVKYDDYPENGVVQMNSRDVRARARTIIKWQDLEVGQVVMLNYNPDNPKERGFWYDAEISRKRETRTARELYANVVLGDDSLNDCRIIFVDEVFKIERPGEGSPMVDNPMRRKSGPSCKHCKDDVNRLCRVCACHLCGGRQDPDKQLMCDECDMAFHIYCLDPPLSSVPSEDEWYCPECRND
Briefly: ITC; in presence of Spacer (TTD-PHD/Spacer 1:2).

Test [3] has as its target T1, TTD of UHRF1 (residues 134–285). Nature of the test: ITC; in presence of Spacer S651D (1:2).
In test [4] the target is T3, UHRF1^Δ627–674 (human, UniProt Q96T88 1-793, Δ627–674).
T3 sequence: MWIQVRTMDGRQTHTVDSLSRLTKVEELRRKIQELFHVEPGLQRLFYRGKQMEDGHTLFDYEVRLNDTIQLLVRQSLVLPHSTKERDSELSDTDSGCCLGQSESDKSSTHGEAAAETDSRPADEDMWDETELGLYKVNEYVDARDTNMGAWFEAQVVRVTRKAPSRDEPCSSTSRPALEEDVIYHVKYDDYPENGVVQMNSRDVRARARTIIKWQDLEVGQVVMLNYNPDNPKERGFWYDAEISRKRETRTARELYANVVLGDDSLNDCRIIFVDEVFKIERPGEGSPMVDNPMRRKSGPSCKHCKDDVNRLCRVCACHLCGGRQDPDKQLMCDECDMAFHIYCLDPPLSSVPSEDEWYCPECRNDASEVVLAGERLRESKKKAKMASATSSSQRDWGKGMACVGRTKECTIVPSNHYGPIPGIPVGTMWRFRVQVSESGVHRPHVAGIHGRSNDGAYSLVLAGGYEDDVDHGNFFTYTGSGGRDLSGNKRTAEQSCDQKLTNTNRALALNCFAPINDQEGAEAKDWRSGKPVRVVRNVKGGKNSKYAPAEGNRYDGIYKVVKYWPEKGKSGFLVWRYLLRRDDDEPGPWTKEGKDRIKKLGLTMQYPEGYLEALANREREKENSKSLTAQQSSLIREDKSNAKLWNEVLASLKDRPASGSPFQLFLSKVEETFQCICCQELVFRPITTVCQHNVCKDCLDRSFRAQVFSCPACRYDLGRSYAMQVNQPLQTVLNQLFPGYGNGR
Nature of the test: ITC.

For test [5], the target named is T1, TTD of UHRF1 (residues 134–285). Briefly: ITC.
In test [6] the target is T4, R295D/R296D mutant of full-length UHRF1 (human, UniProt Q96T88 1-793, R295D | R296D).
T4 sequence: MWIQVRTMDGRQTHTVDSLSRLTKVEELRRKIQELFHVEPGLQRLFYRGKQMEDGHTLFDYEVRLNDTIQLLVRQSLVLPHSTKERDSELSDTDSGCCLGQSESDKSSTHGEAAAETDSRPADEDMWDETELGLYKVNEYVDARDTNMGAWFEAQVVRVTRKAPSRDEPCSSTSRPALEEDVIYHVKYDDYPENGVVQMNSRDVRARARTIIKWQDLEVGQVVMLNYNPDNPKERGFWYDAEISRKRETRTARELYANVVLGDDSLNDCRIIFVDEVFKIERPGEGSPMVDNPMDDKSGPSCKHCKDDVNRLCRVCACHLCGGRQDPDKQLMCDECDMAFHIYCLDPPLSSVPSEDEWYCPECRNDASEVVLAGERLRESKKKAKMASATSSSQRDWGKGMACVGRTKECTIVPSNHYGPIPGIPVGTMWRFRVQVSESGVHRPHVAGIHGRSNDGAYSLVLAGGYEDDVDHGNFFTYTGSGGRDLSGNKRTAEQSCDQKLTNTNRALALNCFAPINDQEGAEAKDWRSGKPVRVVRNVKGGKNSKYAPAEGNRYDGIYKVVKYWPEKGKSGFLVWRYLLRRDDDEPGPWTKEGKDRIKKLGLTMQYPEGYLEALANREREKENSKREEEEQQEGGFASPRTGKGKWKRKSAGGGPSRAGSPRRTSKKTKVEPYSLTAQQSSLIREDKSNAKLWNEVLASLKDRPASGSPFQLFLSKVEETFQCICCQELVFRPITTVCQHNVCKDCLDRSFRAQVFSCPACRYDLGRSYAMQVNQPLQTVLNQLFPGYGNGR
Nature of the test: ITC.

For test [7], the target named is T1, TTD of UHRF1 (residues 134–285). Briefly: ITC; in presence of SRA.
Test [8] concerns the target T2, TTD–PHD of UHRF1 (residues 134–366). Briefly: ITC; in presence of Spacer (1:2).
Test [9] addresses T1, TTD of UHRF1 (residues 134–285). Briefly: ITC; in presence of Spacer K648D (1:2).
Test [10] concerns the target T5, PHD of UHRF1 (residues 307–366) (human, UniProt Q96T88 307-366).
T5 chain: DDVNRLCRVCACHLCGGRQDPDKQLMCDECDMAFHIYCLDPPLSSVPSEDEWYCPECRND
Briefly: ITC.

The target of test [11] is T5, PHD of UHRF1 (residues 307–366). Briefly: ITC; in presence of SRA (PHD/SRA 1:2).
The target in test [12] is T6, PHD-SRA of UHRF1 (human).
T6 chain: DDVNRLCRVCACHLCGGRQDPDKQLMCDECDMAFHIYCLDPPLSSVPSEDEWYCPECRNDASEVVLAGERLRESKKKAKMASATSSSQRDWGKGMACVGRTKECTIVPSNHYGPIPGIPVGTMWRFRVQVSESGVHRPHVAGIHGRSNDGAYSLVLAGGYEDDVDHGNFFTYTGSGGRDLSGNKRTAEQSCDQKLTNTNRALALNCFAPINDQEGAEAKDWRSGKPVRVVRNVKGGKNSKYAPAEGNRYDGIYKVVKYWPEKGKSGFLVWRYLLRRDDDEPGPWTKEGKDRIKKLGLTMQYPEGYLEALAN
Briefly: ITC.

Test [13] concerns the target T5, PHD of UHRF1 (residues 307–366). Briefly: ITC; in presence of SRA (1:1).
Test [14] shares this target. Briefly: ITC; in presence of SRA (PHD/SRA 1:1).
Test [15] has the same target. Nature of the test: ITC; in presence of SRA (1:2).

B1: H3K9me3 peptide (1–17) (peptide)
peptide: ARTKQTARKSTGGKAPR
modifications: trimethyl-lysine at K9
The term Kd denotes the free concentration of one partner at which half of the binding sites on the other are occupied at equilibrium, for simple one-to-one binding. With B1, the dissociation constant (Kd) was determined as 2890 nM in test [1]; 1630 nM in test [2]; 1280 nM in [3]; 1190 nM in [4]; 990 nM in test [5]; 36800 nM in [6]. Moreover, the Kd was 880 nM in test [7], 1630 nM in test [8] and 6580 nM in test [9].

B2: H3 peptide (1–17) (peptide)
peptide: ARTKQTARKSTGGKAPR
Turning to B2, the Kd in test [10] was found to be 770 nM; in test [11] it was 4640 nM; in test [12], 5790 nM; in test [13], 2040 nM; in test [14], 2040 nM; in [15], 4640 nM.

The values are drawn from paper PMC4822050 (2016).
